B1: TPR t1 (parent)
chain: GACCAAUCUGCCCUCAGAGCUCGAGAACAUCUUCGGAUGCAGAGGAGGCAGGCUUCGGUGGCGCGAUAGCGCCAACGUCCUCAACCUCCAAUGCAUCCCACCACAUGAUGAUGCCUGAAGAGCCUUGGUUUUUUG

Variants of: B1
Experiment: polymerase ribozyme fitness, log enrichment relative to wild type (log ratio); higher = more active; in vitro selection for triplet polymerase activity
Summary of the method: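 A single round of triplicate in vitro selection, including frozen incubation at −7 °C, was applied to PCR-built, transcribed mutant libraries of each subunit of a heterodimeric triplet polymerase ribozyme. Illumina sequencing of input and output libraries retained genotypes with ≥10 input reads and ≥1 read per output. Fitness is the base-2 logarithm of genotype enrichment divided by wild-type enrichment, from inverse-variance-weighted replicate averages.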

Row | Variant | polymerase ribozyme fitness (log ratio)
1 | GACCAAUCUGCCCUCAGAGCUCGAGAACAUCUUCAGAUGCAGAGGAGGCAGGCUUCGGUGGCGCGCUAGCGCCAACGUCCUCAACCUCCAAUGCAUCCCACCACAUGAUGAUGCCUUAAGAGCCUUGGUUUUUUG | -5.98
2 | GACCAAUCUGCCCUCAGAGCUCGAGAACAUCUUUGGAUGCAGAGGAGGCAGGCUUCGGUGGCGCGAUAGCGCCAACGUCCUCAACCUCCAAUGCAUCCCACCACAUGAUGAAGCCUGAAGAACCUUGGUUUUUUG | -5.94
3 | GACCAAUCUGCCCUCAGAGCUCGAGAACAUCUUCCGAUGCAGAGGAGGCAGGCUUCGGUGGCGCGAUAGCGCAAACGUCCUCAACCUCCAAUGCAUCCCACCACAUGAUGAUGCCUGAAGAGCCUUGGUUUUUUG | -5.42
4 | GACCAAUCUGCCCUCAGAGCUCGAGAACAUCUUCCGAUGCAGAGGAGGCAGGCUUCGGUGCCGAGAUAGCGCCAACGUCCUCAACCUCCAAUGCAUCCCACCACAUGAUGAUGCCUGAAGAGGCUUGGUUUUUUG | -6.08
5 | GACCAAUCUGCCCUCAGAGCUCGAGAACAUCUUCAGAUGCAGAGGAGGCAGGCUUCGGUGGCGUGAUAGCGCCAACGUCCUCAACCUCCAAUGCAUCCCACCCCAUGAUGAUGCCUGAAAAGCCUUGGUUUUUUG | -5.9
6 | GACCAAUCUGCCCUCAGAGCUCGAGAACAUCUUCAGAUGCAGAGGAGUCAGGCUUCGGUGGCGCGAUAGCGCCAACGUCCUCAACCUCCAAUGCAUCCCACCACAUGAUGAUGCCUGAAGAGCCUUGGUUUUUUG | -3.78
7 | GACCAAUCUGCCCUCAGAGCUCGAGAACAUCUUCCGAUGCAGAGGAGGCAGGCUUCGGUGGCGCGAUAGCGUCAACGUCCUCAACCUCCAAUGCAUCCCACCACAUGAUGAUGCCUGAAGAGCCUUGGUUUUUUG | -4.96
8 | GACCAAUCUGCCCUCAGAGCUCGAGAACAUCUUCCGAUGCAGAGGAGGCAGGCUUCGGUGGCGCGAUAGCGCCAACGUCCUCAACCUCCAAUGCUUCCUACCAAAUGAUGCUGCCUGAAGAGCCUUGGUUUUUUG | -6.57
9 | GACCAAUCUGCCCUCAGAGCUCGAGAACAUCUUCAGAUGCAGAGGAGGCAGGCUUCGGUGGCGCGAUAGCGGCAACGUCCUCAACCUCCAAUGCAUCCCACCACCUGAGGAUGCCGGAAGGGCCUUGGUUUUUUG | -6.34
10 | GACCAAUCUGCCCUCAGAGCUCGAGAACAUCUUCAGAUGCAGAGGAGGCAGGCUUCGGUGGCGCGAUAGCGCCAACGUCCUCAACCUCCAAUGCAUCCCACCACAUGUUGAUGCCUGAACAGCCUUGGUUUUUUG | -5.76
11 | GACCAAUCUGCCCUCAGAGCUCGAGAACAUCUUCAGAUGCAGAGGAGGAAGGCUUCGGUUGCGCGAUAGCGCCAACGUCCUCAACUUCAAAUGCAUCCCACCACAUGAUGAUGCCUGAAGAGCCUUGGUUUUUUG | -7.46
12 | GACCAAUCUGCCCUCAGAGCUCGAGAACAUCUUUGGAUGCAGAGGAGGCAGGCUUCGGUGGCGCGAUAGCGCCAACGUCCUCAACCUCCAAUGCAUCCCACCACAUGAUGAUGCCUGAAGAACCUUGGUUUUUUG | -4.6
13 | GACCAAUCUGCCCUCAGAGCUCGAGAACAUCUUCCGAUGCAGGGGAGGCAGGCUUCGGUAGUGGGAUAGCGCCAACGUCCUCAUCCUCCAAUGCAUCUCACCACAUGAUGUUGCCUGAAGUGCCUUGGUUUUUUG | -7.98
14 | GACCAAUCUGCCCUCAGAGCUCGAGAACAUCUUCCGAUGCAGAGUAGGCAGGCUUCGGUGACGCGAUAGCGCCAACGUCCUCAACCUCCAAUGCAUCCCACCACAUGAUGAUGCCUGAAGGGCCUUGGUUUUUUG | -3.1
15 | GACCAAUCUGCCCUCAGAGCUCGAGAACAUCUUUGGAUGCAGAGGAGGCAGGCUUCGGUGGCGCGAUAGCGCCAACAUCCUCAACCUCCAAUGCAUCCCACCACAUGAUGAUGCCUGAAGAGCCUUGGUUUUUUG | -5.22
16 | GACCAAUCUGCCCUCAGAGCUCGAGAACAUCUUCAGAUGCAGAGGAGGCAGGCUUCGGUGGCGCGAUAGCGCCAACGUCCUCAACCUCCAAUGCAUCCCACCACAUGAUGAUGGCUGAAGAGCCUUGGUUUUUUG | -5.64
17 | GACCAAUCUGCCCUCAGAGCUCGAGAACAUCUUCAGAUGCAGAGGAGGCAGGCUUCGGUGGCGCGAUAGCGCCAACGUCCUCAACCUCCAAUGCAUCCCACCACAUGAUGAUGCCUGAACAGCCUUGGUUUUUUG | -2.79
18 | GACCAAUCUGCCCUCAGAGCUCGAGAACAUCUUUGGAUGCAGAGGAGGCAGGCUUCGGUGGCCCGAUAGCGCCAACGUCCUCAACCUCCAAUGCAUCCCACCACAUGAUGAUGCCUGAAGAGCCUUGGUUUUUUG | -3.94
19 | GACCAAUCUGCCCUCAGAGCUCGAGAACAUCUUCCGAUGCAGAGGAGGCAGGCUUCGGUGGCGCGAUAGCGUCAACGUCCUCAACCUCCAAUGCAUCCCACCACAUGAUGAUGUCUGAAGAGCCUUGGUUUUUUG | -6.13
20 | GACCAAUCUGCCCUCAGAGCUCGAGAACAUCUUCCGAUGCAGAGGAGGCAGGCUUCGGUGGCGCGAUAGCGCCAAGGUCCUCAACCUCCAAUGCAUCCGCCCACAUGAUGAAGCCUGAAAAGCCUUGGUUUUUUG | -6.53
21 | GACCAAUCUGCCCUCAGAGCUCGAGAACAUCUUCAGAUGCAGAUGAGGCAGGCUUCGGUGGCGCGAUAGCGCCAACGUCCUCAACCUCCAAUGCAUCCCACCACAUGAUGAUGCAUGAAGAGCGUUGGUUUUUUG | -2.88

Row | Variant | polymerase ribozyme fitness (log ratio)
22 | GACCAAUCUGCCCUCAGAGCUCGAGAACAUCUUCAGAUGCAGAGGAGGCAGGCUUCGGUGGCGCGAUAGCGCCAACGUCCUCAACCUCCAAUGCAUCCCACUACAUGAUGAUGCCUGAAGAGCCUUGGUUUUUUG | -5.08
23 | GACCAAUCUGCCCUCAGAGCUCGAGAACAUCUUCAGAUGCAGAGGAGACAGGCUUCGGUGGCGCGAUAGCACCAACGUCCUCAACCUCAAAUGCAUCCAAUCACAUGAUGAUGCCUGAAGAGCCUUGGUUUUUUG | -7.55
24 | GACCAAUCUGCCCUCAGAGCUCGAGAACAUCUUCAGAUGCAGAGGAGGCAGGCUUCGGUGGCGCGAUAGCGCCAACGUCCUCAACCUCCAAUGCAUCCCACCACAUGAUGAUGCCUGAAGAUGCUUGGUUUUUUG | -4
25 | GACCAAUCUGCCCUCAGAGCUCGAGAACAUCUUUGGAUGCAGAGGAGGCAGGCUUCGGUGGCGCGAUAGCGCCAACGUCCUCAACCUCCAAUGCAUCCCACCACAUGAUGAUACAUGAAGAGCCUUGGUUUAUUG | -6.07
26 | GACCAAUCUGCCCUCAGAGCUCGAGAACAUCUUCCGAUGCAGAGGAGGCAGGCUUCGGUGGCGCGAUAGCGCCAACGUCCUCAACCUCCAAUGCAUCCCACCACAUGAUGAUGUCUGAAGAGCCUUGGUUUUUUG | -5.79
27 | GACCAAUCUGCCCUCAGAGCUCGAGAACAUCUUCCGAUGCAGAGGAGGCAGUGUUCGGUGGCGCGAUAGCGCCAACGUCCUCAACCUCCGAUGCAUCUCACCACAUGAUGAUGCCUGAAGAGCCUUGGUUUUUUG | -6.7
28 | GACCAAUCUGCCCUCAGAGCUCGAGAACAUCUUCCGAUGCAGAGGAGGCGGGGUUCGGUGGCGCGAGAGCGCCAACGUCCUCAACCUCCAAUGCAUCCCACCACAUGAUGAUGCCUGAAGAGCAUUGGUUUUUUU | -6.69
29 | GACCAAUCUGCCCUCAGAGCUCGAGAACAUCUUCAUAUGCAGAGGAGGCAGGCUUCGGUGGCGCGAUAGCGCCAACGUCCUCAACCUCCAAUGCAUCCCACCACAUGAUGAAGCCUGAAGAGCCUUGGUUUUUUG | -5.59
30 | GACCAAUCUGCCCUCAGAGCUCGAGAACAUCUUUGGAUGCAGAGGAGGCAGGCUUCGGUGGCCCGAUAGCGCCAACGUCCUCAACCUCCAAUGCAUCCCUCCACAUGAUGCUGCCUGAAGAGCCUUGGUUUUUUG | -5.4
31 | GACCAAUCUGCCCUCAGAGCUCGAGAACAUCUUUGGAUGCAGAGGAGGCAGGCUUCGGUGGCGCGAUAGCGCCAACGUCCUCAACCUCCAAUGCAUCCCACCACAUGAUAAUGCCUGAAGAGCCUUGGUUUUUUG | -4.68
32 | GACCAAUCUGCCCUCAGAGCUCGAGAACAUCUUCAGAUGCAGAGGAGGCAAGCUUCGGUUGCGCGAUAGCGCCAACGUCCUCAACCUCCAAUGCAUCCCACCACAUGAUGAUGCCUGAAGAGCUUUGGUUUUUUG | -6.94
33 | GACCAAUCUGCCCUCAGAGCUCGAGAACAUCUUCCAAUGCAGAGGAGGCACGCUUCGGUGGCGCGAUAGCGCCAACGUCCUCAACCUCCAAUGCAUCCCACCACAUGAUGAUGCCUGAAGAGGCUUGGUUUUUUG | -6.59
34 | GACCAAUCUGCCCUCAGAGCUCGAGAACAUCUUUGGAUGCAGAGGAGGCAGGCUUCGGUGGCGCGAUAGCGCCAACGCCCUCAACCUCCAAUGCAUCCCACCACAUGAUGAUGCCUGAAGAGCCUUGGUUUUUUG | -4.25
35 | GACCAAUCUGCCCUCAGAGCUCGAGAACAUCUUUGGAUGCAGAGGAGGCAGGCUUCGGUGGCGCGAUAGCGCCAACGACCUCAACCUCCAAUGCAUCCCACCACAUGAUGAUGCCUGAAGAGCCUUGGUUUUUUG | -4.78
36 | GACCAAUCUGCCCUCAGAGCUCGAGAACAUCUUCAGAUGCAGAGGAGGCAGGCUUCGGUGGCGCGAUAGCGCCAACGUCCUCAACCUCCAAUGGAUCCCACCACAUGAUGAUGCCUGAAGAGGCUUGGCUUUUUG | -5.78
37 | GACCAAUCUGCCCUCAGAGCUCGAGAACAUCUUCAGAUGCAGAGGAGGCAGGCUUCGGUGGCGCGAUAGCGCCAACGUCCUCAACCUCCAAUGCAUCCAACCACAUGAUGAUGCCUGAAGAGACUUGGUUUUUUG | -6.8
38 | GACCAAUCUGCCCUCAGAGCUCGAGAACAUCUUUGGAUGCAGAGGAGGCAGGCUUCAGUGGCGCGAUAGCGCCAACGUCCUCAACCUCCAAUGCAUCCCACCACAUAAAGAUGCCGGAAGAGCCUUGGUUUUUUG | -6.43
39 | GACCAAUCUGCCCUCAGAGCUCGAGAACAUCUUCAGAUGCAGAGGAGGCAGGCUUCGGUGGCGCGAUAGCACCAACGUCCUCAACCUCCAAUGCAUCCCACCACAUGAUGAUGCCUGAAGAGCCUUGGUUUUUUG | -4.49
40 | GACCAAUCUGCCCUCAGAGCUCGAGAACAUCUUCAGAUGCAGAGGAGGCAGGCUUCGGUGGCGCGAUAGCGCCAACGUCCUCAACCUUCAAUGCAUCCCACCACAUGAUGAUGCCUGAAGUGCCUUGGUUUUUUG | -1.91
41 | GACCAAUCUGCCCUCAGAGCUCGAGAACAUCUUUGGAUGCAGAGGAGGCAGGCUUCGGUGGCGCGAUAGCGCCAACGUCCUCAACCUCCAAUACAUCCCACCACAUGAUGAUGCCUGAAGAGCCUUGGUUUUUUG | -3.87
42 | GACCAAUCUGCCCUCAGAGCUCGAGAACAUCUUCAGAUGCAGAGGAGCCAGGCUUAGGUGGCGCGAUAGCGCCAACGUCCUCAACCUCCAAUGCAUCCCACCACAUGAUGAUGCCUGAAGAGGCUUGGUUUUUUG | -2.99

— the RNAGym collection of RNA variant scans (doi:10.1073/pnas.2313332121)
